Measured values taken from patent US20200399314A1 (MEDIKINE, published 2020).
Bridge positions count the residues as written; N and C are the ends. Ends that are not written are not given here.

T1: human IL-2Rα subunit (human, UniProt P01589 22-213, limits assumed)
T1 construct: also called CD25
T1 sequence (looked up): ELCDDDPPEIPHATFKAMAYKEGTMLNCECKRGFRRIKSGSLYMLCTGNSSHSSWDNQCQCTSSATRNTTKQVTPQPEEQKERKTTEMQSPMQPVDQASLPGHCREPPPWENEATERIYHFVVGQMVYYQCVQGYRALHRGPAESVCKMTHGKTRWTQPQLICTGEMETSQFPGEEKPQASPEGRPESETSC


Molecular target: T1, human IL-2Rα subunit

| IC50 [µM] | Binder |
| --- | --- |
| < 100 | VRCRLARPGLTWECLS [SEQ ID NO 210] |
| < 100 | RQFCLVSPGYEDCWFV [SEQ ID NO 135] |
| < 100 | GCVLQFSGVWWECV (disulfide 2-13 (inferred)) [SEQ ID NO 174] |
| < 100 | STCRMGNPGGVWGCYF (disulfide 3-14 (inferred)) [SEQ ID NO 193] |
| < 100 | LACILSKPGEHWECLF [SEQ ID NO 184] |
| < 100 | NSCILSNPGLGWQCVF [SEQ ID NO 186] |
| < 100 | KGCTLQNPGSGWVCLF [SEQ ID NO 183] |
| < 100 | SRCSLVWAENWVCIF [SEQ ID NO 160] |
| < 100 | QRCNRSLLDALICQA [SEQ ID NO 146] |
| < 100 | VTCYRAVPGVEAYCFS [SEQ ID NO 212] |
| < 100 | SRCTLVFDDSWVCVF [SEQ ID NO 153] |
| < 100 | ATCMLRLLGDGWGCVF [SEQ ID NO 181] |
| < 100 | SRCSLVWADSWVCIF [SEQ ID NO 165] |
| < 100 | NGCTLSFSGMSWTCVY (disulfide 3-14 (inferred)) [SEQ ID NO 185] |
| < 100 | QSCTLQRLGHLYQCWF [SEQ ID NO 189] |
| < 100 | QRCQLSWSGGELGCMF (disulfide 3-14 (inferred)) [SEQ ID NO 178] |
| < 100 | TCTVHRIGLAEWECV (disulfide 2-14 (inferred)) [SEQ ID NO 204] |
| < 100 | VGCSLVWTDRWECIF (disulfide 3-13 (inferred)) [SEQ ID NO 156] |
| < 100 | RCRLQKAGGNTWECI [SEQ ID NO 201] |
| < 100 | FIPWDEYFKQVL [SEQ ID NO 11] |
| < 100 | FVLCGLQGCRGS [SEQ ID NO 19] |
| < 100 | TRMCFDDPGWHSCPVV [SEQ ID NO 136] |
| < 100 | SGCSLQWADGWVCIF (disulfide 3-13 (inferred)) [SEQ ID NO 157] |

| IC50 [µM] | Binder |
| --- | --- |
| < 100 | QACQLVWLDSWVCIF [SEQ ID NO 155] |
| < 100 | ASCSLVWQDSWVCIF [SEQ ID NO 164] |
| < 100 | TRWCSLHPGVGECVTL [SEQ ID NO 137] |
| < 100 | GCMLTRGKFWWECI [SEQ ID NO 173] |
| < 100 | RGCSLVWSGSWECIF [SEQ ID NO 154] |
| < 100 | RGCSLVWAGSWECIF [SEQ ID NO 159] |
| < 100 | KVICGWDGCR [SEQ ID NO 20] |
| < 100 | SRCSLVWTDTWVCVF [SEQ ID NO 152] |
| < 100 | THCLVQWPGPVVACRS [SEQ ID NO 194] |
| < 100 | ARCSLVWDEAWVCIF [SEQ ID NO 158] |
| < 100 | SKCHLIVSGKFHECVF [SEQ ID NO 191] |
| < 100 | GRCHLVWSDRWECIF [SEQ ID NO 166] |
| < 100 | SSCTLFNPGTGWTCVF [SEQ ID NO 192] |
| < 100 | SACQLKWDEGWTCLF [SEQ ID NO 144] |
| < 100 | ACWRSWRYPTRTFCS [SEQ ID NO 198] |
| < 100 | RRCTLVFLDSWECIF (disulfide 3-13 (inferred)) [SEQ ID NO 161] |
| < 100 | VRCFMSEPGRVSYCTA [SEQ ID NO 209] |
| < 100 | VRCRVLYPGQMAVCVS [SEQ ID NO 211] |
| < 100 | GPCRLSNPGTGWECIF (disulfide 3-14 (inferred)) [SEQ ID NO 182] |
| < 100 | RGCSLRFAEAWECIF [SEQ ID NO 163] |
| < 100 | GGCSLVWADSWVCIF [SEQ ID NO 148] |
| < 100 | GCTLSWNQGWWHCV [SEQ ID NO 172] |
| < 100 | FVPWDEYFLQIL [SEQ ID NO 15] |

| IC50 [µM] | Binder |
| --- | --- |
| < 100 | FIPWEEYFSQLL [SEQ ID NO 13] |
| < 100 | FIPWPEYFSQLL [SEQ ID NO 14] |
| < 100 | GCTLKWESPNWTCY [SEQ ID NO 169] |
| < 100 | RGCMLRLQPELACVF [SEQ ID NO 147] |
| < 100 | NCRVRHLPYPFWSCL [SEQ ID NO 200] |
| < 100 | NTCKLFRSGNIWQCIF [SEQ ID NO 187] |
| < 100 | FVPWPEYFLQIM [SEQ ID NO 12] |
| < 100 | TTVCDYHPGSRYCINE [SEQ ID NO 138] |
| < 100 | NHCTLSKTYPWVCVF (disulfide 3-13 (inferred)) [SEQ ID NO 145] |
| < 100 | TRCRLLKLGSLWECFG [SEQ ID NO 195] |
| < 100 | VKCKLVNPGSGWACHF (disulfide 3-14 (inferred)) [SEQ ID NO 208] |
| < 100 | RGCTLAWEDSWVCIF (disulfide 3-13 (inferred)) [SEQ ID NO 162] |
| < 100 | RCTLRFDAQTGWECN [SEQ ID NO 202] |
| < 100 | TCRLKRSGPNSWECI [SEQ ID NO 203] |
| < 100 | AGCMLLKPGLYWECIF [SEQ ID NO 179] |
| < 100 | ARCSLHHTGSRYECIF [SEQ ID NO 180] |
| < 100 | SCTVRWDGDWWVCE [SEQ ID NO 170] |
| < 100 | SACTPNWTGRWWECVF (disulfide 3-14 (inferred)) [SEQ ID NO 190] |
| < 100 | YASCTYLPGHRGCTLV [SEQ ID NO 139] |
| < 100 | PSCRLWNPGFGWECIF [SEQ ID NO 188] |
| < 100 | GCSLMWQDGWWVCI [SEQ ID NO 171] |
| < 100 | KCRLRQMSRGGWECL [SEQ ID NO 199] |
| < 100 | WLPCDDYPGHGYCYSR (disulfide 4-13 (inferred)) [SEQ ID NO 140] |
